Starred links: 1 amine or outer side, 2 acyl side, 3 side chain; linkers in the order of their positions; H or OH if unused. Non-standard residues stand in square brackets, D forms with d. 3AzaTyrEtNAc = (2S)-3-[6-(2-acetamidoethoxy)-3-pyridyl]-2-amino-propanoic acid, CC(=O)NCCOc1ccc(C[C@H](N[*:1])C(=O)[*:2])cn1; TyrEtNAc = (2S)-3-[4-(2-acetamidoethoxy)phenyl]-2-amino-propanoic acid, CC(=O)NCCOc1ccc(C[C@H](N[*:1])C(=O)[*:2])cc1; dPro(4R-(4-pyridylmethyl)) = O=C(O)[C@H]1C[C@@H](Cc2ccncc2)CN1; Ala(piperidin-4-yl) = O=C([C@H](CC1CCN([*:3])CC1)N[*:1])[*:2]; Trp(βS-Me,4-F) = C[C@@H](c1c[nH]c2cccc(F)c12)[C@H](N)C(=O)O; 3Aminoazetidine3carboxyl = O=C(C1(N[*:1])CN([*:3])C1)[*:2]; Bip(4'-COOH) = N[C@@H](Cc1ccc(-c2ccc(C(=O)O)cc2)cc1)C(=O)O; Ala(1-bicyclo(1.1.1)pentyl) = N[C@@H](CC12CC(C1)C2)C(=O)O; dPro(4R-Bzl(4-F)) = O=C(O)[C@H]1C[C@@H](Cc2ccc(F)cc2)CN1; Ala(piperazin-1-yl) = N[C@@H](CN1CCNCC1)C(=O)O; Ala(pyrimidin-5-yl) = N[C@@H](Cc1cncnc1)C(=O)O; Phe(4-COOH) = N[C@@H](Cc1ccc(C(=O)O)cc1)C(=O)O; Pro(cis-4-F) = O=C(O)[C@@H]1C[C@H](F)CN1; 4Pal = N[C@@H](Cc1ccncc1)C(=O)O; d(αMeS) = C[C@@](N)(CO)C(=O)O; αMeS = C[C@](N)(CO)C(=O)O; Dab = NCC[C@H](N)C(=O)O; Aib = CC(C)(N)C(=O)O
Biological target: Recombinant human IL-1β (BioLegend 579404) (human, UniProt P01584 117-269)
Assay: cell-based or functional assay

B1: SEQ ID NO: 12 (peptide)
peptide: cyclo([3AzaTyrEtNAc][4Pal][Phe(4-COOH)]G[Pro(cis-4-F)][Trp(βS-Me,4-F)][Aib]EW[Aib][Ala(pyrimidin-5-yl)]Q[Dab]G[dPro(4R-Bzl(4-F))])
SMILES: CC(=O)NCCOc1ccc(C[C@@H]2NC(=O)[C@H]3C[C@@H](Cc4ccc(F)cc4)CN3C(=O)CNC(=O)[C@H](CCN)NC(=O)[C@H](CCC(N)=O)NC(=O)[C@H](Cc3cncnc3)NC(=O)C(C)(C)NC(=O)[C@H](Cc3c[nH]c4ccccc34)NC(=O)[C@H](CCC(=O)O)NC(=O)C(C)(C)NC(=O)[C@H]([C@@H](C)c3c[nH]c4cccc(F)c34)NC(=O)[C@@H]3C[C@H](F)CN3C(=O)CNC(=O)[C@H](Cc3ccc(C(=O)O)cc3)NC(=O)[C@H](Cc3ccncc3)NC2=O)cn1
- MRC5 IC50: 72 pM

B2: SEQ ID NO: 13 (peptide)
peptide: cyclo([Bip(4'-COOH)][Ala(1-bicyclo(1.1.1)pentyl)][Phe(4-COOH)]G[Pro(cis-4-F)][Trp(βS-Me,4-F)][Aib]EW[Aib][Ala(pyrimidin-5-yl)]Q[Dab]G[dPro(4R-Bzl(4-F))])
SMILES: C[C@@H](c1c[nH]c2cccc(F)c12)[C@@H]1NC(=O)[C@@H]2C[C@H](F)CN2C(=O)CNC(=O)[C@H](Cc2ccc(C(=O)O)cc2)NC(=O)[C@H](CC23CC(C2)C3)NC(=O)[C@H](Cc2ccc(-c3ccc(C(=O)O)cc3)cc2)NC(=O)[C@H]2C[C@@H](Cc3ccc(F)cc3)CN2C(=O)CNC(=O)[C@H](CCN)NC(=O)[C@H](CCC(N)=O)NC(=O)[C@H](Cc2cncnc2)NC(=O)C(C)(C)NC(=O)[C@H](Cc2c[nH]c3ccccc23)NC(=O)[C@H](CCC(=O)O)NC(=O)C(C)(C)NC1=O
- MRC5 IC50: 22 pM

B3: SEQ ID NO: 120 (peptide)
peptide: cyclo([Bip(4'-COOH)][4Pal][Phe(4-COOH)]G[Pro(cis-4-F)][Trp(βS-Me,4-F)][Aib]EW[Aib][Ala(piperazin-1-yl)]Q[Dab]G[dPro(4R-Bzl(4-F))])
SMILES: C[C@@H](c1c[nH]c2cccc(F)c12)[C@@H]1NC(=O)[C@@H]2C[C@H](F)CN2C(=O)CNC(=O)[C@H](Cc2ccc(C(=O)O)cc2)NC(=O)[C@H](Cc2ccncc2)NC(=O)[C@H](Cc2ccc(-c3ccc(C(=O)O)cc3)cc2)NC(=O)[C@H]2C[C@@H](Cc3ccc(F)cc3)CN2C(=O)CNC(=O)[C@H](CCN)NC(=O)[C@H](CCC(N)=O)NC(=O)[C@H](CN2CCNCC2)NC(=O)C(C)(C)NC(=O)[C@H](Cc2c[nH]c3ccccc23)NC(=O)[C@H](CCC(=O)O)NC(=O)C(C)(C)NC1=O
- MRC5 IC50: 14 pM

B4: SEQ ID NO: 2 (peptide)
peptide: cyclo([Bip(4'-COOH)][4Pal][Phe(4-COOH)]G[Pro(cis-4-F)][Trp(βS-Me,4-F)][Aib]EW[Aib][4Pal]Q[Dab]G[dPro(4R-Bzl(4-F))])
SMILES: C[C@@H](c1c[nH]c2cccc(F)c12)[C@@H]1NC(=O)[C@@H]2C[C@H](F)CN2C(=O)CNC(=O)[C@H](Cc2ccc(C(=O)O)cc2)NC(=O)[C@H](Cc2ccncc2)NC(=O)[C@H](Cc2ccc(-c3ccc(C(=O)O)cc3)cc2)NC(=O)[C@H]2C[C@@H](Cc3ccc(F)cc3)CN2C(=O)CNC(=O)[C@H](CCN)NC(=O)[C@H](CCC(N)=O)NC(=O)[C@H](Cc2ccncc2)NC(=O)C(C)(C)NC(=O)[C@H](Cc2c[nH]c3ccccc23)NC(=O)[C@H](CCC(=O)O)NC(=O)C(C)(C)NC1=O
- MRC5 IC50: 23 pM

B5: SEQ ID NO: 15 (peptide)
peptide: cyclo([Bip(4'-COOH)][4Pal][Phe(4-COOH)]G[Pro(cis-4-F)][Trp(βS-Me,4-F)][Aib]EW[Aib][4Pal]Q[Dab]G[dPro(4R-(4-pyridylmethyl))])
SMILES: C[C@@H](c1c[nH]c2cccc(F)c12)[C@@H]1NC(=O)[C@@H]2C[C@H](F)CN2C(=O)CNC(=O)[C@H](Cc2ccc(C(=O)O)cc2)NC(=O)[C@H](Cc2ccncc2)NC(=O)[C@H](Cc2ccc(-c3ccc(C(=O)O)cc3)cc2)NC(=O)[C@H]2C[C@@H](Cc3ccncc3)CN2C(=O)CNC(=O)[C@H](CCN)NC(=O)[C@H](CCC(N)=O)NC(=O)[C@H](Cc2ccncc2)NC(=O)C(C)(C)NC(=O)[C@H](Cc2c[nH]c3ccccc23)NC(=O)[C@H](CCC(=O)O)NC(=O)C(C)(C)NC1=O
- MRC5 IC50: 35 pM

B6: SEQ ID NO: 19 (peptide)
peptide: cyclo([Bip(4'-COOH)][4Pal][Phe(4-COOH)]G[Pro(cis-4-F)][Trp(βS-Me,4-F)][d(αMeS)]EW[Aib][Ala(pyrimidin-5-yl)]Q[Dab]G[dPro(4R-Bzl(4-F))])
SMILES: C[C@@H](c1c[nH]c2cccc(F)c12)[C@@H]1NC(=O)[C@@H]2C[C@H](F)CN2C(=O)CNC(=O)[C@H](Cc2ccc(C(=O)O)cc2)NC(=O)[C@H](Cc2ccncc2)NC(=O)[C@H](Cc2ccc(-c3ccc(C(=O)O)cc3)cc2)NC(=O)[C@H]2C[C@@H](Cc3ccc(F)cc3)CN2C(=O)CNC(=O)[C@H](CCN)NC(=O)[C@H](CCC(N)=O)NC(=O)[C@H](Cc2cncnc2)NC(=O)C(C)(C)NC(=O)[C@H](Cc2c[nH]c3ccccc23)NC(=O)[C@H](CCC(=O)O)NC(=O)[C@@](C)(CO)NC1=O
- MRC5 IC50: 21 pM

B7: SEQ ID NO: 17 (peptide)
peptide: cyclo([Bip(4'-COOH)][4Pal][Phe(4-COOH)]G[Pro(cis-4-F)][Trp(βS-Me,4-F)][Aib]DW[Aib][Ala(pyrimidin-5-yl)]Q[Dab]G[dPro(4R-Bzl(4-F))])
SMILES: C[C@@H](c1c[nH]c2cccc(F)c12)[C@@H]1NC(=O)[C@@H]2C[C@H](F)CN2C(=O)CNC(=O)[C@H](Cc2ccc(C(=O)O)cc2)NC(=O)[C@H](Cc2ccncc2)NC(=O)[C@H](Cc2ccc(-c3ccc(C(=O)O)cc3)cc2)NC(=O)[C@H]2C[C@@H](Cc3ccc(F)cc3)CN2C(=O)CNC(=O)[C@H](CCN)NC(=O)[C@H](CCC(N)=O)NC(=O)[C@H](Cc2cncnc2)NC(=O)C(C)(C)NC(=O)[C@H](Cc2c[nH]c3ccccc23)NC(=O)[C@H](CC(=O)O)NC(=O)C(C)(C)NC1=O
- MRC5 IC50: 29 pM

B8: SEQ ID NO: 119 (peptide)
peptide: cyclo([Bip(4'-COOH)][4Pal][Phe(4-COOH)]G[Pro(cis-4-F)][Trp(βS-Me,4-F)][Aib]EW[Aib][Ala(piperidin-4-yl)]Q[Dab]G[dPro(4R-Bzl(4-F))])
SMILES: C[C@@H](c1c[nH]c2cccc(F)c12)[C@@H]1NC(=O)[C@@H]2C[C@H](F)CN2C(=O)CNC(=O)[C@H](Cc2ccc(C(=O)O)cc2)NC(=O)[C@H](Cc2ccncc2)NC(=O)[C@H](Cc2ccc(-c3ccc(C(=O)O)cc3)cc2)NC(=O)[C@H]2C[C@@H](Cc3ccc(F)cc3)CN2C(=O)CNC(=O)[C@H](CCN)NC(=O)[C@H](CCC(N)=O)NC(=O)[C@H](CC2CCNCC2)NC(=O)C(C)(C)NC(=O)[C@H](Cc2c[nH]c3ccccc23)NC(=O)[C@H](CCC(=O)O)NC(=O)C(C)(C)NC1=O
- MRC5 IC50: 16 pM

B9: SEQ ID NO: 14 (peptide)
peptide: cyclo([Bip(4'-COOH)][4Pal][Phe(4-COOH)]G[Pro(cis-4-F)][Trp(βS-Me,4-F)][Aib]EW[Aib][Ala(pyrimidin-5-yl)]Q[Dab]G[dPro(4R-(4-pyridylmethyl))])
SMILES: C[C@@H](c1c[nH]c2cccc(F)c12)[C@@H]1NC(=O)[C@@H]2C[C@H](F)CN2C(=O)CNC(=O)[C@H](Cc2ccc(C(=O)O)cc2)NC(=O)[C@H](Cc2ccncc2)NC(=O)[C@H](Cc2ccc(-c3ccc(C(=O)O)cc3)cc2)NC(=O)[C@H]2C[C@@H](Cc3ccncc3)CN2C(=O)CNC(=O)[C@H](CCN)NC(=O)[C@H](CCC(N)=O)NC(=O)[C@H](Cc2cncnc2)NC(=O)C(C)(C)NC(=O)[C@H](Cc2c[nH]c3ccccc23)NC(=O)[C@H](CCC(=O)O)NC(=O)C(C)(C)NC1=O
- MRC5 IC50: 35 pM

B10: SEQ ID NO: 21 (peptide)
peptide: cyclo([Bip(4'-COOH)][4Pal][Phe(4-COOH)]G[Pro(cis-4-F)][Trp(βS-Me,4-F)][Aib]EW[3Aminoazetidine3carboxyl][Ala(pyrimidin-5-yl)]Q[Dab]G[dPro(4R-Bzl(4-F))])
SMILES: C[C@@H](c1c[nH]c2cccc(F)c12)[C@@H]1NC(=O)[C@@H]2C[C@H](F)CN2C(=O)CNC(=O)[C@H](Cc2ccc(C(=O)O)cc2)NC(=O)[C@H](Cc2ccncc2)NC(=O)[C@H](Cc2ccc(-c3ccc(C(=O)O)cc3)cc2)NC(=O)[C@H]2C[C@@H](Cc3ccc(F)cc3)CN2C(=O)CNC(=O)[C@H](CCN)NC(=O)[C@H](CCC(N)=O)NC(=O)[C@H](Cc2cncnc2)NC(=O)C2(CNC2)NC(=O)[C@H](Cc2c[nH]c3ccccc23)NC(=O)[C@H](CCC(=O)O)NC(=O)C(C)(C)NC1=O
- MRC5 IC50: 40 pM

Binder: cyclo([Bip(4'-COOH)][4Pal][Phe(4-COOH)]G[Pro(cis-4-F)][Trp(βS-Me,4-F)][3Aminoazetidine3carboxyl]EW[Aib][Ala(pyrimidin-5-yl)]Q[Dab]G[dPro(4R-Bzl(4-F))]) [SEQ ID NO: 20]
- MRC5 IC50: 62 pM

Binder: cyclo([TyrEtNAc][4Pal][Phe(4-COOH)]G[Pro(cis-4-F)][Trp(βS-Me,4-F)][Aib]SW[Aib][Ala(pyrimidin-5-yl)]Q[Dab]G[dPro(4R-Bzl(4-F))]) [SEQ ID NO: 16]
- MRC5 IC50: 51 pM

B11: SEQ ID NO: 18 (peptide)
peptide: cyclo([Bip(4'-COOH)][4Pal][Phe(4-COOH)]G[Pro(cis-4-F)][Trp(βS-Me,4-F)][Aib]EW[αMeS][Ala(pyrimidin-5-yl)]Q[Dab]G[dPro(4R-Bzl(4-F))])
SMILES: C[C@@H](c1c[nH]c2cccc(F)c12)[C@@H]1NC(=O)[C@@H]2C[C@H](F)CN2C(=O)CNC(=O)[C@H](Cc2ccc(C(=O)O)cc2)NC(=O)[C@H](Cc2ccncc2)NC(=O)[C@H](Cc2ccc(-c3ccc(C(=O)O)cc3)cc2)NC(=O)[C@H]2C[C@@H](Cc3ccc(F)cc3)CN2C(=O)CNC(=O)[C@H](CCN)NC(=O)[C@H](CCC(N)=O)NC(=O)[C@H](Cc2cncnc2)NC(=O)[C@](C)(CO)NC(=O)[C@H](Cc2c[nH]c3ccccc23)NC(=O)[C@H](CCC(=O)O)NC(=O)C(C)(C)NC1=O
- MRC5 IC50: 27 pM

— patent publication US20260242419A1, “A CYCLIC PEPTIDE FOR TRAPPING INTERLEUKIN-1 BETA” (Merck Sharp & Dohme LLC, priority 2023, published 2026)
